Residue numbers refer to the chain shown, from its start. In names and notes the source's numbering stands. One block for each binder: values may come before it.
Biological target: T1, CD3ε homodimer protein (human, UniProt P07766 23-126, limits assumed, sulfo-tag or biotin label in some ECL assays)
T1 construct: also called human CD3ε homodimer protein; CD3 (CD3ε)
Experiment: SPR, CD3ε homodimer on chip;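 also: biacore SPR with antibody variants flowed as analyte over amine-coupled CD3ε homodimer on a CM chip, bound amount of each single-residue H chain variant over that of parent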

T1 sequence (P07766 23-126 limits assumed): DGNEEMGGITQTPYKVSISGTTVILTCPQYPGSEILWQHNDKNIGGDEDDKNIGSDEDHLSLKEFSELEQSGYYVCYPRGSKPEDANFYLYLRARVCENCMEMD

B1: CE115HA000 G98T (antibody, name in Kabat numbering, V domains shown)
VH: QVQLVESGGGVVQPGRSLRLSCAASGFTFSNAWMHWVRQAPGKGLEWVAQIKAKSNNYATYYAESVKGRFTISRDDSKNSLYLQMNSLKTEDTAVYYCRYVHYTAYYGVDAWGQGTTVTVSS
VL: DIVMTQSPLSLPVTPGEPASISCRSSQSLVHSNRNTYLHWYQQKPGQAPRLLIYKVSNRFSGVPDRFSGSGSGTDFTLKISRVEAEDVGVYYCGQGTQVPYTFGQGTKLEIK
ratio of amounts bound vs CE115HA000: 1

B2: CE115HA000 G100bF (antibody, name in Kabat numbering, V domains shown)
VH: B1 VH with T104G, G108F
VL: B1 VL
ratio of amounts bound vs CE115HA000: 0.3

B3: CE115HA000 H35Y (antibody, name in Kabat numbering, V domains shown)
VH: B1 VH with H35Y, T104G
VL: B1 VL
ratio of amounts bound vs CE115HA000: 0.16

B6: CE115HA000 G98Y (antibody, name in Kabat numbering, V domains shown)
VH: B1 VH with T104Y
VL: B1 VL
ratio of amounts bound vs CE115HA000: 2.22

B9: CE115HA000 H35L (antibody, name in Kabat numbering, V domains shown)
VH: B1 VH with H35L, T104G
VL: B1 VL
ratio of amounts bound vs CE115HA000: 0.11

B11: CE115HA000 H35Q (antibody, name in Kabat numbering, V domains shown)
VH: B1 VH with H35Q, T104G
VL: B1 VL
ratio of amounts bound vs CE115HA000: 0.13

B12: CE115HA000 H35G (antibody, name in Kabat numbering, V domains shown)
VH: B1 VH with H35G, T104G
VL: B1 VL
ratio of amounts bound vs CE115HA000: 0.22

B16: CE115HA000 H96P (antibody, name in Kabat numbering, V domains shown)
VH: B1 VH with H102P, T104G
VL: B1 VL
ratio of amounts bound vs CE115HA000: 0.12

B17: CE115HA000 H35R (antibody, name in Kabat numbering, V domains shown)
VH: B1 VH with H35R, T104G
VL: B1 VL
ratio of amounts bound vs CE115HA000: 0.14

B18: CE115HA000 H35S (antibody, name in Kabat numbering, V domains shown)
VH: B1 VH with H35S, T104G
VL: B1 VL
ratio of amounts bound vs CE115HA000: 0.23

B19: CE115HA000 H35I (antibody, name in Kabat numbering, V domains shown)
VH: B1 VH with H35I, T104G
VL: B1 VL
ratio of amounts bound vs CE115HA000: 0.12

B21: CE115HA000 H35W (antibody, name in Kabat numbering, V domains shown)
VH: B1 VH with H35W, T104G
VL: B1 VL
ratio of amounts bound vs CE115HA000: 0.22

B22: CE115HA000 H35F (antibody, name in Kabat numbering, V domains shown)
VH: B1 VH with H35F, T104G
VL: B1 VL
ratio of amounts bound vs CE115HA000: 0.21

B24: CE115HA000 G100bY (antibody, name in Kabat numbering, V domains shown)
VH: B1 VH with T104G, G108Y
VL: B1 VL
ratio of amounts bound vs CE115HA000: 0.23

B27: CE115HA000 G100bS (antibody, name in Kabat numbering, V domains shown)
VH: B1 VH with T104G, G108S
VL: B1 VL
ratio of amounts bound vs CE115HA000: 0.52

B28: CE115HA000 H96K (antibody, name in Kabat numbering, V domains shown)
VH: B1 VH with H102K, T104G
VL: B1 VL
ratio of amounts bound vs CE115HA000: 0.35

B30: CE115HA000 H35N (antibody, name in Kabat numbering, V domains shown)
VH: B1 VH with H35N, T104G
VL: B1 VL
ratio of amounts bound vs CE115HA000: 0.35

B31: CE115HA000 H35M (antibody, name in Kabat numbering, V domains shown)
VH: B1 VH with H35M, T104G
VL: B1 VL
ratio of amounts bound vs CE115HA000: 0.29

B33: CE115HA000 H35V (antibody, name in Kabat numbering, V domains shown)
VH: B1 VH with H35V, T104G
VL: B1 VL
ratio of amounts bound vs CE115HA000: 0.22

B36: CE115HA000 H35D (antibody, name in Kabat numbering, V domains shown)
VH: B1 VH with H35D, T104G
VL: B1 VL
ratio of amounts bound vs CE115HA000: 0.2

B39: CE115HA000 H35T (antibody, name in Kabat numbering, V domains shown)
VH: B1 VH with H35T, T104G
VL: B1 VL
ratio of amounts bound vs CE115HA000: 0.26

B40: CE115HA000 G100bE (antibody, name in Kabat numbering, V domains shown)
VH: B1 VH with T104G, G108E
VL: B1 VL
ratio of amounts bound vs CE115HA000: 0.36

B41: CE115HA000 H35K (antibody, name in Kabat numbering, V domains shown)
VH: B1 VH with H35K, T104G
VL: B1 VL
ratio of amounts bound vs CE115HA000: 0.15

B45: CE115HA000 G100bI (antibody, name in Kabat numbering, V domains shown)
VH: B1 VH with T104G, G108I
VL: B1 VL
ratio of amounts bound vs CE115HA000: 0.37

Continued, values first:

ratio of amounts bound vs CE115HA000: 0.99
B4: CE115HA000 K43Q (antibody, name in Kabat numbering, V domains shown)
VH: B1 VH with K43Q, T104G
VL: B1 VL

ratio of amounts bound vs CE115HA000: 0.9
B5: CE115HA000 K43E (antibody, name in Kabat numbering, V domains shown)
VH: B1 VH with K43E, T104G
VL: B1 VL

ratio of amounts bound vs CE115HA000: 0.55
B7: CE115HA000 I51E (antibody, name in Kabat numbering, V domains shown)
VH: B1 VH with I51E, T104G
VL: B1 VL

ratio of amounts bound vs CE115HA000: 0.67
B8: CE115HA000 K52bA (antibody, name in Kabat numbering, V domains shown)
VH: B1 VH with K54A, T104G
VL: B1 VL

ratio of amounts bound vs CE115HA000: 0.42
B10: CE115HA000 H96Q (antibody, name in Kabat numbering, V domains shown)
VH: B1 VH with H102Q, T104G
VL: B1 VL

ratio of amounts bound vs CE115HA000: 0.22
B13: CE115HA000 K52W (antibody, name in Kabat numbering, V domains shown)
VH: B1 VH with K52W, T104G
VL: B1 VL

ratio of amounts bound vs CE115HA000: 0.27
B14: CE115HA000 K52bN (antibody, name in Kabat numbering, V domains shown)
VH: B1 VH with K54N, T104G
VL: B1 VL

ratio of amounts bound vs CE115HA000: 0.17
B15: CE115HA000 H96Y (antibody, name in Kabat numbering, V domains shown)
VH: B1 VH with H102Y, T104G
VL: B1 VL

ratio of amounts bound vs CE115HA000: 0.26
B20: CE115HA000 K52E (antibody, name in Kabat numbering, V domains shown)
VH: B1 VH with K52E, T104G
VL: B1 VL

ratio of amounts bound vs CE115HA000: 0.17
B23: CE115HA000 K52F (antibody, name in Kabat numbering, V domains shown)
VH: B1 VH with K52F, T104G
VL: B1 VL

ratio of amounts bound vs CE115HA000: 0.18
B25: CE115HA000 K52Y (antibody, name in Kabat numbering, V domains shown)
VH: B1 VH with K52Y, T104G
VL: B1 VL

ratio of amounts bound vs CE115HA000: 0.34
B26: CE115HA000 K52N (antibody, name in Kabat numbering, V domains shown)
VH: B1 VH with K52N, T104G
VL: B1 VL

ratio of amounts bound vs CE115HA000: 0.33
B29: CE115HA000 K52I (antibody, name in Kabat numbering, V domains shown)
VH: B1 VH with K52I, T104G
VL: B1 VL

ratio of amounts bound vs CE115HA000: 0.27
B32: CE115HA000 K52bD (antibody, name in Kabat numbering, V domains shown)
VH: B1 VH with K54D, T104G
VL: B1 VL

ratio of amounts bound vs CE115HA000: 0.25
B34: CE115HA000 K52D (antibody, name in Kabat numbering, V domains shown)
VH: B1 VH with K52D, T104G
VL: B1 VL

ratio of amounts bound vs CE115HA000: 0.6
B35: CE115HA000 K52bQ (antibody, name in Kabat numbering, V domains shown)
VH: B1 VH with K54Q, T104G
VL: B1 VL

ratio of amounts bound vs CE115HA000: 0.92
B37: CE115HA000 K52R (antibody, name in Kabat numbering, V domains shown)
VH: B1 VH with K52R, T104G
VL: B1 VL

ratio of amounts bound vs CE115HA000: 0.61
B38: CE115HA000 K52bL (antibody, name in Kabat numbering, V domains shown)
VH: B1 VH with K54L, T104G
VL: B1 VL

ratio of amounts bound vs CE115HA000: 0.22
B42: CE115HA000 K52H (antibody, name in Kabat numbering, V domains shown)
VH: B1 VH with K52H, T104G
VL: B1 VL

ratio of amounts bound vs CE115HA000: 0.28
B43: CE115HA000 K52S (antibody, name in Kabat numbering, V domains shown)
VH: B1 VH with K52S, T104G
VL: B1 VL

ratio of amounts bound vs CE115HA000: 0.29
B44: CE115HA000 I51D (antibody, name in Kabat numbering, V domains shown)
VH: B1 VH with I51D, T104G
VL: B1 VL
